# According to the DeepSol protein solubility set:
# Assay: soluble on expression in E. coli; label from the status in PepcDB or PDB records
row,Sequence,soluble on expression in E. coli
1,MSSEPTSSIESDNLRRSKRKKFKLDFVAAAHGNNQKKSRKDPHGQGDDDDDTFDDDLNHFEPLSVLTEQDVSMEMFEDDEEDTVSRRRTRRSTAHFQDYQEPDRWIENSGPHACHKCPSRYESKSSLANHTKMHLGEKRKFACELCDFSASTLKSLTHHNNIHQNFGVLSQQTSPVIPVASSADSTLNSSINSTGCQINAPPAPKLDEEAPIAVESVVVHHEDVAEFDTTPPPILEREDDGPPVLIREAPVRKSNRPMKPTQKAQKMTKQRERKSKTVESPKGSLPSSSASSVTPPPVRKDVEKPKIFVKTTKKNLKKTMKITKVRQRCPHCPFTTSTVTRLNRHSGGHKLKEGYICPSENCNFMCRKAGFLQKHYILHKGTLPWPPEYVKKGGAKMKRTFPESEEKKIEVTEKVQKMKKMHKRRANTVQVVAKAQLKSYIKVEVDDVIFKKCNIGECEFLTQTLTQLIVHKVKTHDTKTAFPQHRFLCLTCGHRAKSYAALRTHKLIEHTSTHKRFHRTYYLKECVGDKFFVKYNLSKVQEEVKEEPKEADGDESGDESFDSMCPASDVHPETLAAIEMKDVFFCCNMCPYKAPTMNRCQRHYDKHFKNDEFKCQYCSWSSRSKEVIVNHEKLHPTVVVANTNEAPVVKNEIEAKVEVLSKTVSSPVECTEESSLSKSIQLWCQREKLRHPELDEQFTRKMIDGVKGFQCTDCPYTSKYRGDMRSHKKRHDIEQLYRCVQCTYTTNRPVSLKDHLKQHAIVNMSIADIKSRRVVVNQGVKIGMRRGVGKDKIYCCDKCPYVTLALGCLWRHHRNHRDTAKINICSNCSYSSIDQRKMEEHTIIHLGLGLNEAVPFVKRVDQKGRPVSSLTDLNSEKMNERKSTKRKMLDKVEKMEVGEDEEDDEESVDKGTDDGDYKQRPEKKRKQSSEEPASDPELFGSSSQPTRQLSERATRNRINYSLLSKNGSGKPTPSTSSANLEKLAGSSGGASSESPEPDESVEVSHWKIRTFLRSEYGVKESLKCPDCPYKSSEPDVLEKHRYYHMTKTTPRPYACSDCTFNTYTPTALLQHLKLHSEGVYFDPMVKKHMKHRKGDSIPPGVKGYYCKNCSFKTSIHRNFIEHSAYHRQQLINRINITLKRQPPRIEYQRPKLKHQFVAKNAKYCKKCTFKCVSQSNFIEHLDRHGWNQLYKCYSCDYSDNTKSVVDFHQLNHHIVKDQTLHSICQSAKFRLENGVIQIPETEKSKPTPDEFVSKTRGLLKCPSCEYFCHVSSELAFHMSVHHLTEPNARETISYLHMGLVPPKATVTTV,not soluble
2,MSSGKVIVYGGKGALGSAILEFFKKNGYTVLNIDLSANDQADSNILVDGNKNWTEQEQSILEQTASSLQGSQVDGVFCVAGGWAGGSASSKDFVKNADLMIKQSVWSSAIAAKLATTHLKPGGLLQLTGAAAAMGPTPSMIGYGMAKAAVHHLTSSLAAKDSGLPDNSAVLTIMPVTLDTPMNRKWMPNADHSSWTPLSFISEHLLKWTTETSSRPSSGALLKITTENGTSTITPQ,soluble
3,MSSGVMVDPDVQTSFQKLSEGRKEYRYIIFKIDENKVIVEAAVTQDQLGITGDDYDDSSKAAFDKFVEDVKSRTDNLTDCRYAVFDFKFTCSRVGAGTSKMDKIIFLQICPDGASIKKKMVYASSAAAIKTSLGTGKILQFQVSDESEMSHKELLNKLGEKYGDH,not soluble
4,MSSLGNQSEKNSNNKFSDNVPLAQHEIWKEKYESLVTEHENLVKEHETLIKTLELIEKHEITLEDLVKKKQREALVGKEEIEKFDKEIGERKKMQEMLDKDLEYLKSCEETVMNGMSSGPSGARVADKRNVNKFESQEGNFKCFLICV,not soluble
5,MSSLLTIALAVTISCVNTVEDQYFGGQNAEPVAKVEQKATSNNTLADLEKDPLYPYIDKQNKLVEKNGIQYIENEENILVLANKDYSLQPTYTPPDLVRPNVTFSFGNEQVEKAQLRKEAGTALEEMFKAANQDGKKLFAVSGYRSYKRQQEVFQAEVNSKGDKKAREAVAYPGTSEHQTGLAMDISSENQSYELTEAFGTTPEGKWLEENAHNYGFILRYMKGREDITKYQYESWHYRYVGKDAATIIYKNNWTLEEFFEHVKALQKKVDAAK,not soluble
6,MSSNECFKCGRSGHWARECPTGGGRGRGMRSRGRGFQFVSSSLPDICYRCGESGHLAKDCDLQEDACYNCGRGGHIAKDCKEPKREREQCCYNCGKPGHLARDCDHADEQKCYSCGEFGHIQKDCTKVKCYRCGETGHVAINCSKTSEVNCYRCGESGHLARECTIEATA,not soluble
7,MSSNHPLDQLYRQVIMDHYKNPRNRGVLEGTNVDVNMNNPTCGDRIHLTMKVEDGKVADVKFEGEGCSISMSSASMMTQAIKGKTVEEALRLAHIFSDMIQGKEYDDSVDLGDIEALQGVSKFPARIKCATLAWKALEKGLHNHEHEGR,not soluble
8,MSSNLTSNEMSSTSAIVEPPEAVKGNERDKSTRRSTSQVVRPEKHEVENALEDQCSSSSLPKEAQYYAKLDKKLEGKDPRSQFYEAVRLSADIFAHKFEKAVCSRQTFEPTNSIIKVLNTAEEEMLHEKVVPLPVSSKLQYYLNRGRYDTIFDRDEQLQRTADPMADEPDHVEKRVTSILEQASREMEEGEVEPVFYDGSDEDQELPIDLGAMRNLQRTNKFAARSSRMAARRGGRPGYRGAFRGAARGAPSRRPAPAAEVAPETPVAAPMAPAAPAAPATPEAAPAAEVMDTSIATEMPQESAVDLSNVSAATEMDTSKEGEASRPTSEKKKKIRTTEMDRLMSMDLGPKDGGRVGELGHMWPESRRRPAAPLPETPAAQPRKSLPRRAAEKKKPEDSDAAEEQEVEMEVDNDASTSTPRNARGGRGGGNRRGSRRGQKRTSGGSGKLVEPKKEPVDEPAEKIPKRSEAAPEVPATATTKEAPPSTSSSPPDAPATPATPASSDSRDSPRKIRAMIFSLTGSPPESETPPVLQQEQVISTAAPTAGRHPNIIQQVPHINRIPPQPLRRLTAPQAPPASQPEEPPVQQTVPVVKVELASAPAPIVRDPQSTEPVPPAMPTLVENNHEATLILPPNKTSDYTRWNAQDLINWVRLLITNNVDSTIAIMVREEFDGETLACLVLDDDFRKEVPIPYGHYKKMKIYGTEVLNHYRTEKYQADLRKFHEELAAWKAQQR,not soluble
9,MSSPDSAAHQFSICRVCDDSNGQPHYGTICCPSCKGFFRRVYMSDKKFECYRGNMCVIQKGTRNICRACRYKKCLQVGMNVKGSTTRHNLRINIYVQTSAESTPKSSKDTEMGVAEAMEMAQVYMNLEKYCENNYCESNMCREEENRLIDRMLSSTVHELIQKTSPQCPRFKRDWKPLEMLNLENFCRSWSRSIVHFLDFATRFPVFNQLSHIDKRAWFISRLAPCSFLTMAYQTRIEMCEGLLFGCSNVFPLKSDRWIAVETEHLRGLFSSITETMFSFVIYPMMNLKITDLHYSLLKACVFFSAGIVVTSVSDKGMEIMRNEYTKHKNALMKLLMNGVERFSQQTDILFQIQDVQNTLEHHKHLKSQQI,soluble
10,MSSQPKLRILCLHGYRQCDQSFRQKTGSTRKLVKSLAEFEFVNGVHSVAVDEHVDSSRAWWFSNNEAMSFSSRESTEVAVGFEESVAAVVKFIEENGPFDGLLGFSQGASMVHLLIAKAQLGEIKLPGIRFAIFFSGFLSLSSKHDSLTLLRIKEFPSMHVFGDADEIVARPKSEKMADMFDVEPLRIAHDGGHVVPSMSKHKEKIAGFMREQLDRKIENN,not soluble
11,MSSRKVSRAHYDEDELASAANMSLVAEGHFRGMKELLSTMDLDTDANTIPELKERAHMLCARFLGGAWKTVPLEHLRISRIKGGMSNMLFLCRLSEVYPPIRNEPNKVLLRVYFNPETESHLVAESVIFTLLSERHLGPKLYGIFSGGRLEEYIPSRPLSCHEISLAHMSTKIAKRVAKVHQLEVPIWKEPDYLCEALQRWLKQLTGTVDAEHRFDLPEECGVSSVNCLDLARELEFLRAHISLSKSPVTFCHNDLQEGNILLPKASSGNIRMPSLSDETQALGNSLSAFNPADPRLVLIDFEYASYNYRAFDFANHFIEWTIDYDIDEAPFYKIQTENFPENDQMLEFFLNYLREQGNTRENELYKKSEDLVQETLPFVPVSHFFWGVWGLLQVELSPVGFGFADYGRDRLSLYFKHKQLLKNLASHQ,soluble
12,MSSSNENAGKHSYLRSLISGLSSQGICAYVYASSGYGESSTDIVFTGKAFIAEAGEIVEEMERFRYEERMIISDIDVSRIQTERLINSSFKAAVTFHTHDEKFNQLPFKLRSRQESLPMTRRVLEHHHHHH,soluble
13,MSSVPKNKDELELAINSIFPKLMVDYRSIPESKARKVGVEGNVKGTFISVSDTVAYLIGWGKLVLKWHRLKSQNQHVDFPETGYKWNQLGLLAESFHEEYRDWKYSDLLVELEFTINEILLLISSLSDHELYGVAWYEQWTLGRMIQFNTSSPMKNMRTKVRRFNREFTLEHHHHHH,not soluble
14,MSSYDIAIIGGGISGVGIAQYAAAAGYSTLLIEKGEIGGQTSANSSKLIHGGLRYLESGQINLVRKSLLERRNLLDLAPSLVKPVAFYIPVYQDSRRNPLTIRAGLSLYALLSEFDPLGRFVSIPAVHWHRFKGLKLSGLKAVFQYWDAQTDDKLLTQAVARSAQALGAHIYAEAEFLQLNHLKEQIELSFRHRGEVQQIETKLVINAAGPWVNEVLAHVEPPLAGVEIDWVQGAHLLLDLPAPEGILYLESCFDKRVIFVMPWYGQMLIGTTETVLTSIDTPPQVTESETQYLLGIYCHYFPLSPSIEELKTKIVQTYCGVRVLPKQASSAFERPRDTLMQTSISHPRLLCLYGGKLTTFRSSSAEVLEWIEQKLGKRQPIADIDTLKLTLEHHHHHH,not soluble
15,MSTDEERIYSIALTQIPGVGHIGAKRLVDGMGSATDVFRYRTELPDRLPGVNRAVVAALDSPQALKRAEQEYEFARNNRISCFTLADEDYPSRLRECDDAPVVLFFKGKANLNALHIINMVGTRNATDYGKHICVSFLQELQMLCPDVLVVSGLAYGIDINAHRSALSVELPTVGVLAHGLDRIYPSLHRKTAIDMLRQGGLLTEFLSGTNPDKHNFISRNRIVAGISDATIVVESAAKGGSLITADIAGSYHRDCFAFPGRVTDEYSKGCNQLIQDNKAVLLESASDFVKTMGWDSDLKSVKPETVQRNLFPDLSAEELRIVDILGKLGDLQINALMVQADIPINKISAILFELEMKGVIRVLAGGVYQLLR,not soluble
16,MSTEDALCFTGEEYARHVREYWRGVAESDGFDSEDIRSPVVLTGLFHYDCQSGRRYPDPLLVKRYALLGLHRFNILQGTSFELDALQKFNKTMNLTSSYYITLLANEPGAIPLQKTFQVRVDERKYDTLDLTVAIARLKKDQNEAAETTKEPFVPHFCCSAVSDGVFQGPLPDWPSDDALRHDRNRFYELEKSEWQATDWISLYLELLILATDRGMFGVAQTGLPQVQILKVVIETEEENEKPLDKRLNARRAHVYITFTGLPKSPRLVEIGEHVERKAIIRRVIDDSGYLTLLGKFWSGKDTEQRSKTRQSEEKVESSQKRSRLC,soluble
17,MSTHASAHGSTHTSTHHPIAVIGAGLGGLAAARVLHVHGIEAAVYEADASPTARHQGGMLDIHGESGQAALRAAGLYEEFRAIVHPGGEATRILDKDGTVRHEEGDRPEEGDRPEVDRNDLRRILLDSLPEGTIRWGAKVTGARALGGGRHEVTLADGSVFTTDVLIGADGAWSRIRPLLSPATPAYTGISFVEADLHEAATRHRAAAELVGGGSMFALAEGKGILTHLETDGSVHAYVALKADEDWLSTIDFTGTDTDTAKKTLLTHFEDWDDRLRALITDADGALVPRLIHALPVDHRWERTAGVTLLGDAAHLMSPFAGEGANLALLDGAELATALAAHPADPESALTAYERSLFPRSHRAAGESAANLTFMFGPNALEELVGMMSGHEPSDRLEHHHHHH,soluble
18,MSTLLPFPCEEKIPEGKYVLRTFEIKEGQVKEKLKDLNYEILASLSGVDLTFEKEEEWKKAKEILSDYVYTDRPESLEETLGRILKEKGFTLSTAESCTAGMLSSRIVNVPGSSEYFVGGFVVYSNDLKVKYLCVSEDTLKKYGAVSWQTCLEMTVGLKSNLGTDCGIAITGIAGPGGTLTKPQGLTYIGIFVKDKLTVIKRIFKGSRNENRFLSTQTAIFYLLKLLKR,soluble
